US20190263922A1 (TIGA TX, published 2019)
Where a chain is given by its changes, count along the chain named. Ends that are not written are not given here.

T1: human CD20 (human, UniProt P11836 1-297)
T1 construct: whole, on cells; Always presented on cells; also called MS4A1; CD20 WT
T1 sequence (looked up): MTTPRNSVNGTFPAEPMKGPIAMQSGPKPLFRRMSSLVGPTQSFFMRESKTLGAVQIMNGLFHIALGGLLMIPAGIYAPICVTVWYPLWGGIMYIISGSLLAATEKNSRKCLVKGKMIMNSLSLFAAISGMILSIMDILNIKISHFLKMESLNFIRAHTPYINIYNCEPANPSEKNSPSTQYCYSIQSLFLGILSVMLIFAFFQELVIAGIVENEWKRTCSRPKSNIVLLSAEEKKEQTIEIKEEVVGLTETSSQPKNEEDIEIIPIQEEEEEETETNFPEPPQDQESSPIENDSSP

T2: CD20 single mutant A170P (human, UniProt P11836 1-297)
T2 construct: whole, on cells
T2 sequence (looked up): T1 sequence (looked up) with A170P

T3: CD20 mutant T159K/N163D/N166D (human, UniProt P11836 1-297)
T3 construct: whole, on cells; also called KDD
T3 sequence (looked up): T1 sequence (looked up) with T159K, N163D, N166D

T4: circular peptide YNCEPANPSEKNSPSTQYCYS (human, circular (cysteine-based loop, Pepscan technology); covalently linked to the plate)
T4 peptide: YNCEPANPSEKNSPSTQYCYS

T5: linear peptide NSPSTQYGPANPSEK (human, also: covalently linked to the plate)
T5 peptide: NSPSTQYGPANPSEK

B1: m7 (mIgG2b-CD20 mAb) (antibody, V domains shown)
VH: QAYLQQSGAELVRPGASVKMSCKASGYTFASYNMHWIKQTPRQGLEWIAAIYPGNGDTSYNQKFKGKATLTVDKSSSTAYMQLSSLTSEDSAVYFCARTYYYGSSPYWSFDVWGTGTTVTVSS
VL: DIQMTQSPASLSASVGETVTVTCGASYNIYGALNWYQRKQGKSPQLLIYGATNLADGMSSRFSGSGSGRQYSLKISSLHPDDVATYYCQNVLSNPPTFGGGTKLEIK
notes: Mouse IgG2b hybridoma mAb
B2: m1 (mIgG2c-CD20 mAb) (antibody, V domains shown)
VH: QAYLQQSGAELVRPGASVKMSCKASGYTFTSYNLHWVKQTPRQGLEWIGAIYPGNGDTSYNQKFKGKATLTVDKSSSTAYMQLSRLTSEDSAVYFCARSNSYGSTYWYFDVWGTGTTVTVSS
VL: QIVLSQSPAVLFASPGEKVTMTCRARSSVSYMDWYQQKPRSSPKPWIYATSNLASGVPARFSGSGSGTSYSLTISRVEAEDAATYYCQQWTSNPPTFGSGTKLEIK
modifications: FITC- or Alexa647-labelled in the kinetic assays; label sites not given
notes: Mouse IgG2c hybridoma mAb; FITC- or Alexa647-labeled in the kinetic assays

Key:
[1] = target: T1, human CD20; assay: FACS on Daudi cells
[2] = target: T2, CD20 single mutant A170P; assay: FACS, HEK293F cells transfected with CD20 A170P
Method: (§4) One day post-transfection, cells were harvested, washed in FACS buffer and stained for 30 min with 5 μg/mL CD20 mAbs on ice. mAb binding was detected with a goat-anti-hIgG-APC or goat-anti-mIgG-APC Ab (Jackson). Cells were measured on a FACS Canto II (BD).

[3] = target: T3, CD20 mutant T159K/N163D/N166D; assay: FACS, HEK293F cells transfected with CD20 T159K/N163D/N166D, 5 ug/mL mAb
Method: as §4
Therefore, we first performed a rough epitope mapping experiment with two CD20 mutants, with amino acids mutated in either the small (T159K/N163D/N166D) or larger (A170S/P172S) loop of CD20 (FIG. 4B).

[4] = target: T4, circular peptide YNCEPANPSEKNSPSTQYCYS; assay: PepScan ELISA, 1 ug/mL mAb on plate-linked peptide
Method: (§1) Recognition of peptides by the CD20 mAb was assessed in a PepScan-based ELISA as previously described. ⁽²⁰⁾ Briefly, 1 μg/mL mAb was added to plates with covalently linked peptides and incubated overnight at 4° C. After extensive washing, bound mAb was detected with a HRP-linked rabbit-anti-mIgG (DakoCytomation) for 1 h at 25° C. Unbound detection Ab was washed away. Plates were developed using ABTS substrate and color development quantified using a CCD camera and an image-processing system.

[5] = target: T5, linear peptide NSPSTQYGPANPSEK; assay: PepScan ELISA, 1 ug/mL mAb on plate-linked peptide
Method: as §1

[6] = target: T1, human CD20; assay: LigandTracer Green, 10 nM FITC-labeled mAb on SKBR3-CD20 cells, OneToOne fit, non-competitive dissociation
Method: (§2) Kinetics analysis of interactions between the mAbs and CD20 was performed by using the LigandTracer green Technology (Ridgeview Instruments AB). 10⁶ SKBR3-CD20 cells were seeded on one side of a 10 cm culture dish (Greiner) as target cell area and association of 10 nM FITC-labeled CD20 mAb was measured. For non-competitive or competitive dissociation, labeled mAb solution was replaced by RPMI culture medium or 100 nM unlabeled mAb of the same clone, respectively. Analysis was performed using an OneToOne fitting model in TraceDrawer (Ridgeview Instruments AB).
(§3) A slow Ab off-rate might favor the formation of Ab-Clq complexes, the first component of the classical complement pathway. […] To characterize interaction kinetics and affinity of mAbs, we used the LigandTracer technology to record real-time binding and dissociation of Abs to cellular receptors.

[7] = target: T1, human CD20; assay: LigandTracer Green, 10 nM FITC-labeled mAb on SKBR3-CD20 cells, OneToOne fit, competitive dissociation (100 nM unlabeled mAb of the same clone)
Method: as §2, §3

Binder | binding result [1] | binding result [2] | binding result [3] | binding result [4] | binding result [5] | Kd [6] [nM] | koff [6] [s⁻¹] | kon [6] [M⁻¹ s⁻¹] | Kd [7] [nM] | koff [7] [s⁻¹] | kon [7] [M⁻¹ s⁻¹]
B1 | binds | binds | binds | – | – | – | – | – | – | – | –
B2 | – | – | – | binds | binds | 1.05 | 3.91e-05 | 37300 | 2.65 | 6.92e-05 | 26100
